{
  "source": "patent US20150086555A1",
  "binders": {"B1": {"name": "TCN-551 (5243_D01) (antibody, V domains shown)", "VH": "EVQLVQSGSEVKKPGESLKISCKGSGYSFSNYWIGWVRHMPGKGLEWMGIIYPGDSDTRYSPSFQGQVTMSADKSSSTVYLQWSSLKASDTAIYYCARRGGHSFGYGSGGDTHSEFDSWGQGTLVTVSS", "VL": "QSVLTQSPSVSAAPGQKVTISCSGSDSNIGDYFVCWYQHLPGKPPQLLIYENNKRPSGIPDRFSGSKSGTSATLGITGIQTGDEADYYCATWDGSLSAWVFGGGTKLTVL"}},
  "details_in_all_cases": "remark: other sources report otherwise",
  "key": {"[1]": {"biological_target": "recombinant soluble homotrimeric HA, A/Japan/305/57 H2N2 (Influenza A virus A/Japan/305/1957(H2N2))", "assay": "microarray, transfection SN IgG, trimeric HA"}, "[2]": {"biological_target": "recombinant soluble homotrimeric HA, A/South Carolina/1/18 H1N1 (Influenza A virus A/South Carolina/1/18 (H1N1))", "assay": "microarray, transfection SN IgG, trimeric HA"}, "[3]": {"biological_target": "recombinant soluble homotrimeric HA, A/Hong Kong/156/97 H5N1 (Influenza A virus A/Hong Kong/156/97 (H5N1))", "assay": "microarray, transfection SN IgG, trimeric HA"}, "[4]": {"biological_target": "recombinant soluble homotrimeric HA, A/Vietnam/1203/04 H5N1 (Influenza A virus A/VietNam/1203/2004(H5N1))", "assay": "microarray, transfection SN IgG, trimeric HA"}, "[5]": {"biological_target": "recombinant soluble homotrimeric HA, A/California/4/09 H1N1 (Influenza A virus A/California/04/2009(H1N1))", "assay": "microarray, transfection SN IgG, trimeric HA"}, "[6]": {"biological_target": "recombinant soluble homotrimeric HA, A/Solomon Islands/3/06 H1N1 (Influenza A virus A/Solomon Islands/3/2006(H1N1))", "assay": "microarray, transfection SN IgG, trimeric HA"}, "[7]": {"biological_target": "recombinant soluble homotrimeric HA, A/Anhui/1/05 H5N1 (Influenza A virus A/Anhui/1/2005(H5N1))", "assay": "microarray, transfection SN IgG, trimeric HA"}, "[8]": {"biological_target": "recombinant soluble homotrimeric HA of A/California/4/09 (H1N1) (Influenza A virus A/California/04/2009(H1N1))", "assay": "HA microarray, BCC supernatant"}, "[9]": {"biological_target": "recombinant soluble homotrimeric HA of A/Solomon Islands/3/06 (H1N1) (Influenza A virus A/Solomon Islands/3/2006(H1N1))", "assay": "HA microarray, BCC supernatant"}, "[10]": {"biological_target": "recombinant soluble homotrimeric HA of A/Hong Kong/2108/03 (H9N2) (Influenza A virus A/HK/2108/2003(H9N2))", "assay": "HA microarray, BCC supernatant"}, "[11]": {"biological_target": "recombinant soluble homotrimeric HA of A/Egypt/3300-NAMRU3/08 (H5N1) (Influenza A virus A/Egypt/3300-NAMRU3/2008(H5N1))", "assay": "HA microarray, BCC supernatant"}, "[12]": {"biological_target": "recombinant soluble homotrimeric HA of A/Wisconsin/67/05 (H3N2) (Influenza A virus A/Wisconsin/67/2005(H3N2))", "assay": "HA microarray, BCC supernatant"}, "[13]": {"biological_target": "recombinant soluble homotrimeric HA of A/Anhui/1/05 (H5N1) (Influenza A virus A/Anhui/1/2005(H5N1))", "assay": "HA microarray, BCC supernatant"}, "[14]": {"biological_target": "recombinant soluble homotrimeric HA of A/Indonesia/5/05 (H5N1) (Influenza A virus A/Indonesia/5/2005(H5N1))", "assay": "HA microarray, BCC supernatant"}, "[15]": {"biological_target": "recombinant soluble homotrimeric HA of A/Japan/305/57 (H2N2) (Influenza A virus A/Japan/305/1957(H2N2))", "assay": "HA microarray, BCC supernatant"}, "[16]": {"biological_target": "recombinant soluble homotrimeric HA of A/Netherlands/219/03 (H7N7) (Influenza A virus A/Netherlands/219/03(H7N7))", "assay": "HA microarray, BCC supernatant"}, "[17]": {"biological_target": "recombinant soluble homotrimeric HA of A/duck/Yangzhou/02/05 (H8N4) (Influenza A virus A/duck/Yangzhou/02/2005(H8N4))", "assay": "HA microarray, BCC supernatant"}, "[18]": {"biological_target": "recombinant soluble homotrimeric HA of A/Vietnam/1203/04 (H5N1) (Influenza A virus A/VietNam/1203/2004(H5N1))", "assay": "HA microarray, BCC supernatant"}, "[19]": {"biological_target": "hemagglutinin (HA) of influenza A/Japan/305/57 (H2N2) on whole virions (Influenza A virus A/Japan/305/1957(H2N2)), P03451", "assay": "ELISA; BCC supernatant on coated inactivated whole virions"}, "[20]": {"biological_target": "recombinant homotrimeric HA A/Japan/305/57 H2N2 (Influenza A virus A/Japan/305/1957(H2N2))", "assay": "protein microarray, purified IgG, trimeric HA"}, "[21]": {"biological_target": "recombinant homotrimeric HA A/California/4/09 H1N1 (Influenza A virus A/California/04/2009(H1N1))", "assay": "protein microarray, purified IgG, trimeric HA"}, "[22]": {"biological_target": "recombinant homotrimeric HA A/Egypt/3300-NAMRU3/08 H5N1 (Influenza A virus A/Egypt/3300-NAMRU3/2008(H5N1))", "assay": "protein microarray, purified IgG, trimeric HA"}, "[23]": {"biological_target": "recombinant homotrimeric HA A/Hong Kong/156/97 H5N1 (Influenza A virus A/Hong Kong/156/97 (H5N1))", "assay": "protein microarray, purified IgG, trimeric HA"}, "[24]": {"biological_target": "recombinant homotrimeric HA A/Netherlands/219/03 H7N7 (Influenza A virus A/Netherlands/219/03(H7N7))", "assay": "protein microarray, purified IgG, trimeric HA"}, "[25]": {"biological_target": "recombinant homotrimeric HA A/Indonesia/5/05 H5N1 (Influenza A virus A/Indonesia/5/2005(H5N1))", "assay": "protein microarray, purified IgG, trimeric HA"}, "[26]": {"biological_target": "recombinant homotrimeric HA A/South Carolina/1/18 H1N1 (Influenza A virus A/South Carolina/1/18 (H1N1))", "assay": "protein microarray, purified IgG, trimeric HA"}, "[27]": {"biological_target": "recombinant homotrimeric HA A/Vietnam/1203/04 H5N1 (Influenza A virus A/VietNam/1203/2004(H5N1))", "assay": "protein microarray, purified IgG, trimeric HA"}, "[28]": {"biological_target": "recombinant homotrimeric HA A/Solomon Islands/3/06 H1N1 (Influenza A virus A/Solomon Islands/3/2006(H1N1))", "assay": "protein microarray, purified IgG, trimeric HA"}, "[29]": {"biological_target": "recombinant homotrimeric HA A/Anhui/1/05 H5N1 (Influenza A virus A/Anhui/1/2005(H5N1))", "assay": "protein microarray, purified IgG, trimeric HA"}},
  "data": [
    {"binder": "B1", "values": [
      {"measurement": "Trimeric HA Binding: RLU", "setting": "[1]", "result": 25200, "unit": "RLU"},
      {"measurement": "Trimeric HA Binding: RLU", "setting": "[2]", "result": 4340, "unit": "RLU"},
      {"measurement": "Trimeric HA Binding: RLU", "setting": "[3]", "result": 792, "unit": "RLU"},
      {"measurement": "Trimeric HA Binding: RLU", "setting": "[4]", "result": 41900, "unit": "RLU"},
      {"measurement": "Trimeric HA Binding: RLU", "setting": "[5]", "result": 46100, "unit": "RLU"},
      {"measurement": "Trimeric HA Binding: RLU", "setting": "[6]", "result": 43500, "unit": "RLU"},
      {"measurement": "Trimeric HA Binding: RLU", "setting": "[7]", "result": 2640, "unit": "RLU"},
      {"measurement": "Trimeric HA Binding: RLU", "setting": "[8]", "result": 53400, "unit": "RLU"},
      {"measurement": "Trimeric HA Binding: RLU", "setting": "[9]", "result": 53800, "unit": "RLU"},
      {"measurement": "Trimeric HA Binding: RLU", "setting": "[10]", "result": 224, "unit": "RLU"},
      {"measurement": "Trimeric HA Binding: RLU", "setting": "[11]", "result": 47200, "unit": "RLU"},
      {"measurement": "Trimeric HA Binding: RLU", "setting": "[12]", "result": 6840, "unit": "RLU"},
      {"measurement": "Trimeric HA Binding: RLU", "setting": "[13]", "result": 4190, "unit": "RLU"},
      {"measurement": "Trimeric HA Binding: RLU", "setting": "[14]", "result": 53500, "unit": "RLU"},
      {"measurement": "Trimeric HA Binding: RLU", "setting": "[15]", "result": 22600, "unit": "RLU"},
      {"measurement": "Trimeric HA Binding: RLU", "setting": "[16]", "result": 786, "unit": "RLU"},
      {"measurement": "Trimeric HA Binding: RLU", "setting": "[17]", "result": 9820, "unit": "RLU"},
      {"measurement": "Trimeric HA Binding: RLU", "setting": "[18]", "result": 4150, "unit": "RLU"},
      {"measurement": "ELISA virus binding (OD450)", "setting": "[19]", "result": 0.19, "unit": "OD450"},
      {"measurement": "Trimeric HA Binding: RLU", "setting": "[20]", "result": 1600, "unit": "RLU"},
      {"measurement": "Trimeric HA Binding: RLU", "setting": "[21]", "result": 19400, "unit": "RLU"},
      {"measurement": "Trimeric HA Binding: RLU", "setting": "[22]", "result": 907, "unit": "RLU"},
      {"measurement": "Trimeric HA Binding: RLU", "setting": "[23]", "result": 824, "unit": "RLU"},
      {"measurement": "Trimeric HA Binding: RLU", "setting": "[24]", "result": 1670, "unit": "RLU"},
      {"measurement": "Trimeric HA Binding: RLU", "setting": "[25]", "result": 296, "unit": "RLU"},
      {"measurement": "Trimeric HA Binding: RLU", "setting": "[26]", "result": 10300, "unit": "RLU"},
      {"measurement": "Trimeric HA Binding: RLU", "setting": "[27]", "result": 2950, "unit": "RLU"},
      {"measurement": "Trimeric HA Binding: RLU", "setting": "[28]", "result": 25000, "unit": "RLU"},
      {"measurement": "Trimeric HA Binding: RLU", "setting": "[29]", "result": 6640, "unit": "RLU"}
    ]}
  ]
}
